Assay results from the supplement of paper PMC10724198.
± gives the standard deviation of the averaged measurements.

Test system: Saccharomyces cerevisiae
Experiment: protein stability index of tFT-peptide fusion (C-terminal peptide) (PSI (0-1 scale)); higher = more stable (slower turnover)
Settings: genetic background: wild type; temperature: 30 C
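Also: PSI is a weighted mean of sequencing reads over stability bins, variants kept only with over 10 reads, mCherry proximal and sfGFP distal, peptide attached via GGGS linker.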

Row | Sequence | protein stability index
1 | AFCLLSSLASGF | 0.759 ± 0.067
2 | SFPLPPLSPPSR | 0.73 ± 0.048
3 | EAGVGSGGGRCG | 0.673 ± 0.058
4 | FCSSVSFPPAPL | 0.642 ± 0.035
5 | AEMGQDGADAGQ | 0.676 ± 0.01
6 | SREKRKEEQTQK | 0.717 ± 0.018
7 | KAASSLSRPAHL | 0.734 ± 0.074
8 | VSNKWATANKYG | 0.644 ± 0.051
9 | PGHPGSCPRRNG | 0.645 ± 0.046
10 | RGLYPLKVDCQW | 0.753 ± 0.036
11 | IRFCILRRLGRH | 0.588 ± 0.028
12 | GGVGVGVGCGGR | 0.6828 ± 0.0017
13 | VYSDSCLLRKTT | 0.695 ± 0.02
14 | KKKKKKRYRKKI | 0.605 ± 0.024
15 | FSLLSFLLPLFP | 0.787 ± 0.12
16 | PPGSPGPRTPPP | 0.708 ± 0.024
17 | RALPPPLCPPPH | 0.606 ± 0.056
18 | MLGLHSDTRRSR | 0.673 ± 0.022
19 | ERIGAREQPSAT | 0.7075 ± 0.0056
20 | SLISRAFYSFSP | 0.699 ± 0.04
21 | RPFATVLRTRAV | 0.71 ± 0.0077

Row | Sequence | protein stability index
22 | TQNRGLSSFRAF | 0.691 ± 0.035
23 | WLVGEWPGRWGR | 0.728 ± 0.037
24 | DVHNCSLQAAKK | 0.691 ± 0.012
25 | SGACRLEESGKV | 0.755 ± 0.061
26 | GAPPRPKTGRTF | 0.7118 ± 0.00075
27 | LPVLGSFRLIWL | 0.626 ± 0.016
28 | PPSSSPPHTPFP | 0.6557 ± 0.0011
29 | WGLGGVCAVRGS | 0.575 ± 0.094
30 | NKKKNKKIRQEK | 0.685 ± 0.017
31 | RGYGRGWRGVGA | 0.747 ± 0.18
32 | GCLVGRGQRGTE | 0.686 ± 0.026
33 | GFGLACGRCMGS | 0.623 ± 0.098
34 | AGRGGRAGGGWR | 0.668 ± 0.015
35 | AGAFVGAPVGGE | 0.713 ± 0.026
36 | LRCSVKQNLGIV | 0.655 ± 0.045
37 | LACVYEVIPGPS | 0.677 ± 0.047
38 | ASYGHCTTCRRT | 0.717 ± 0.021
39 | WSFSSGCWGYVG | 0.6281 ± 0.0036
40 | PPPHTPLPPLAP | 0.744 ± 0.05
41 | SFYSAALSCVFI | 0.737 ± 0.15
42 | GNRWSLTVTPNR | 0.69 ± 0.028

Row | Sequence | protein stability index
43 | VCGLTLSVCTFG | 0.567 ± 0.0068
44 | GGREWRGGQGEV | 0.669 ± 0.12
45 | PPFVPFLLIFPP | 0.611 ± 0.042
46 | KKNKKKKIKMNK | 0.713 ± 0.038
47 | LSRLLVYSRGIV | 0.629 ± 0.093
48 | FLFFLLLYVFFC | 0.498 ± 0.048
49 | LLMPRTKEEYDN | 0.601 ± 0.24
50 | TKQKKIEDEEII | 0.6314 ± 0.0017
51 | VAQKARSVRFSI | 0.722 ± 0.1
52 | CRWGGGGRRGRG | 0.723 ± 0.025
53 | PHAPHPPHPAPC | 0.653 ± 0.01
54 | PHPLPHASPAPC | 0.6677 ± 0.0019
55 | PSPPPHGLPRPA | 0.675 ± 0.06
56 | PLVLPPSPASPF | 0.694 ± 0.042
57 | RPGGVRVVSIQL | 0.672 ± 0.06
58 | GFFRRNLGRVMD | 0.608 ± 0.074
59 | PHPPPPSPPLPT | 0.709 ± 0.041
60 | GYYPVALDYKLR | 0.708 ± 0.05
61 | SVYPSSPTRPPP | 0.683 ± 0.048
62 | RPPFPLRTSPLV | 0.694 ± 0.037
63 | VGLGVLWVMGKV | 0.667 ± 0.082

Row | Sequence | protein stability index
64 | SRRSNMRNMRTT | 0.657 ± 0.081
65 | RTVPCCVAENKF | 0.672 ± 0.012
66 | PRCCDIEIESGR | 0.68 ± 0.027
67 | PTDAFFGLCMDC | 0.68 ± 0.038
68 | RFGGGAVWGLGG | 0.666 ± 0.02
69 | PFPPRLPSPATP | 0.6914 ± 0.0037
70 | IFRFHRSRNSKY | 0.722 ± 0.029
71 | TRNRKEWKIVIL | 0.594 ± 0.042
72 | GVLGSIQLFLGI | 0.699 ± 0.0091
73 | WCPGAGGAVVVV | 0.658 ± 0.073
74 | LAGRPSTTRAFR | 0.59 ± 0.027
75 | LLRWEPNYTENL | 0.796 ± 0.028
76 | IIKMNERTLTKI | 0.692 ± 0.099
77 | AGQNVWGAGTNE | 0.712 ± 0.0079
78 | RPHAFHCDPSSP | 0.698 ± 0.11
79 | LPRGLRAISCVE | 0.569 ± 0.024
80 | RTLYEAAPLFVG | 0.729 ± 0.051
81 | LRLATTLFPLSF | 0.797 ± 0.12
